From patent US12338199B2, “Bis-octahydrophenanthrene carboxamides and protein conjugates thereof” (REGENERON PHARMACEUTICALS, INC., priority 2017, dated 2025)
Like-named read-outs stand apart in the source and are kept apart here.

B1: H1H27754P-N297Q (antibody, V domains shown)
VH: EVQLVESGGGLVQPGGSLRLSCAASGFTFRTYAMTWVRQAPGKGLDWVSAITGDGGNTYYADSVKGRFTISRDNSKNTLYLQMNSLRAEDTAIYYCAKDQRFSFALYYFDYWGQGTLVTVSS
VL: DIQMTQSPSSVSASVGDRVTITCRASQGISSWLAWYQQKPGNAPKLLIYAAFSLQSGVPSRFSGSGSGTDFTLTISSLQPEDFATYYCQQANNFPWTFGQGTKVEIKR
B2: H1H27731P-N297Q (antibody, V domains shown)
VH: QLQLQESGPGLVKPSETLSLTCTVSGGSISRISYYWGWIRQPPGKGLEWIGSIYDSGSTYYNPSLKSRVTISIDTSKNQFSLKLSSVTAADTAVYYCVRYSSSSAFAFDYWGQGTLVTVSS
VL: DIQMTQSPSSVSASVGDRVTITCRASQGISSWLAWYQQKPGKAPKLLIYAASSLQSGVPSRFSGSGSGTDFTLTISSLQPEDFATYYCQQANSFPFTFGPGTKVDIKR
B3: H1H27734P-N297Q (antibody, V domains shown)
VH: EVQLVESRGGLVQPGGSLRLSCAASGFTFSSYAMSWVRQAPGKGLEWVSAISGSGGSTFYADSVKGRFTISRDNSKNTVYLQMNSLRAEDTAVYYCAKALVLRFLEWLGDYWGQGTLVTVSS
VL: DIQMTQSPSTLSASVGDRVTITCRASQSISSWLAWFQQKPGKAPKLLIYKASSLESGVPSRFSGSGSGTEFTLTISSLQPDDFATYYCQQYKSYWTFGQGTKVEIKR
B4: H1H21234N (antibody, V domains shown)
VH: QVQLQESGPGLVKPSETLSLTCTVTGGSISRNYWSWIRQPPGKGLEWIGYIYYSGSIDYNPSLKSRVTISVDTSKNQFSLKLSSMTAADTAVYYCARDRWNWKYGMDVWGQGTTVIVSS
VL: EIVLTQSPGTLSLSPGERATLSCRASQTVRNNYLAWYHQKPGQAPRLLIYGASSRATGIPDRFSGSGSGTDFTLTISRLEPEDFTVYYCHQYGNSPWTFGQGTKMEIKR
B5: H1H21234N-N297Q-LP 13 (conjugate)
VH: QVQLQESGPGLVKPSETLSLTCTVTGGSISRNYWSWIRQPPGKGLEWIGYIYYSGSIDYNPSLKSRVTISVDTSKNQFSLKLSSMTAADTAVYYCARDRWNWKYGMDVWGQGTTVIVSS
VL: EIVLTQSPGTLSLSPGERATLSCRASQTVRNNYLAWYHQKPGQAPRLLIYGASSRATGIPDRFSGSGSGTDFTLTISRLEPEDFTVYYCHQYGNSPWTFGQGTKMEIKR
B6: H1H21234N-N297Q (antibody, V domains shown)
VH: QVQLQESGPGLVKPSETLSLTCTVTGGSISRNYWSWIRQPPGKGLEWIGYIYYSGSIDYNPSLKSRVTISVDTSKNQFSLKLSSMTAADTAVYYCARDRWNWKYGMDVWGQGTTVIVSS
VL: EIVLTQSPGTLSLSPGERATLSCRASQTVRNNYLAWYHQKPGQAPRLLIYGASSRATGIPDRFSGSGSGTDFTLTISRLEPEDFTVYYCHQYGNSPWTFGQGTKMEIKR
B7: H1H27739P-N297Q (antibody, V domains shown)
VH: EVQLVESGGGLVQPGGSLRLSCTASGFTFSSYAMSWVRQAPGKGLEWVSAISGTGSSTYFTDSVKGRFAISRDNSKNTLYLQMNSLRAEDTAVYYCAKDGEWLSTVTLFDYWGQGTLVTVSS
VL: EIVMTQSPATLSVSPGERATLSCRASQSVSSNLAWYQQKPGQAPRLLIYGASTRATGIPARFSGSGSGTDFTLTISSLQSEDFALYYCQQYFIWPPHPTFGPGTKVDIKR
B8: H1H27729P-N297Q (antibody, V domains shown)
VH: QVQLVESGGGLVKPGGSLRLSCAASGFIFSDYYMSWIRQAPGKGLEWVSYISSSGTTIYGDSVKGRFTMSRDNAKNSLYLQMNSLRAEDTAVYYCARNYALFDYWGQGTLVTVSS
VL: DIQMTQSPSSLSASVGDRVTITCQASQDISKYLNWYQQKPGKAPKLLIYYTSNLETGVPSRFSGSGSGTDFTFTISSLQPEDIATYYCHQSDYLPFTFGPGTKVDIKR

Experiments:
[1] = target: T1, His9-hMSR1 (human MSR1 extracellular domain) (Homo sapiens, UniProt P21757); assay: Biacore surface plasmon resonance binding kinetics; conditions: 25° C.; for kd (s^−1) / kd: * = no dissociation observed, kd fixed at 1.00E−05; for Kd: calculated from the kinetic rates, read-out: KD (Molar); for ka: His9-hMSR1 binding to captured antibody
T1 construct: human MSR1 extracellular domain expressed with a N-terminal nonahistidine tag; purchased R&D Systems 2708-MS
T1 sequence (P21757 77-451 limits assumed): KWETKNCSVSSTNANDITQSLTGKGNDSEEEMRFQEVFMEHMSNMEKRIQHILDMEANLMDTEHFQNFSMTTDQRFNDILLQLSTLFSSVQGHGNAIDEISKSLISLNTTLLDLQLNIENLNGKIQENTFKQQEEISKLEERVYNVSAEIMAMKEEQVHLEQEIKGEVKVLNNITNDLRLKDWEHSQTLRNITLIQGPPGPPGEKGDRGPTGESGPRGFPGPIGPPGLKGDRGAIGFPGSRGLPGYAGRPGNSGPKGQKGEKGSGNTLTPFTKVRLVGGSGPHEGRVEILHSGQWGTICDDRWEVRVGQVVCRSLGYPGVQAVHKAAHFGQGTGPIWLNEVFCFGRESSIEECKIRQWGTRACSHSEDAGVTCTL
Description: The MSR1 antibodies disclosed herein were conjugated to various liver X receptor (LXR) payloads. This example describes how equilibrium dissociation constant (KD) values for human MSR1 reagents binding to human anti-MSR1 antibody-drug conjugates and their corresponding unconjugated parental antibodies were determined using a real-time surface plasmon resonance-based Biacore T200 biosensor.
All binding studies were performed in 10 mM HEPES, 300 mM NaCl, 3 mM EDTA, and 0.05% v/v Surfactant Tween-20, pH 7.4 (HBS-ET) running buffer at 25° C. The Biacore CM4 sensor chip surface was first derivatized by amine coupling with the goat anti-human Fcγ specific polyclonal antibody (Jackson ImmunoResearch Laboratories, Cat # BR-1008-39) to capture anti-MSR1 monoclonal antibodies. Binding studies were performed on human MSR1 extracellular domain expressed with a N-terminal nonahistidine tag (His9-hMSR1; R&D Systems, Cat #2708-MS).
The association rate (ka) and dissociation rate (kd) were determined by fitting the real-time binding sensorgrams to a 1:1 binding model with mass transport limitation using Scrubber 2.0c curve-fitting software. Binding dissociation equilibrium constant (KD) and dissociative half-life (t½) were calculated from the kinetic rates as: […]

[2] = tested on: THP1/LXR-Luc cells; assay: LXR-luciferase reporter bioassay in PMA-differentiated THP1/LXR-Luc cells; type: cell-based, human; conditions: for S/N (signal to noise, ratio of RLU of standard one over RLU of standard eight) / EC50: PMA-differentiated THP1/LXR-Luc cells, 48 hours; for S/N (signal to noise, ratio of RLU of standard one over RLU of standard eight): luciferase activity; for EC50: luciferase activity (One-Glo), 10-point dose response 100 nM to 0.01 nM
Text: To test the efficacy of anti-MSR1 antibody-LXR conjugates in vitro, a cell-based LXR responsive luciferase reporter assay was developed. To generate the assay cell line, a LXR regulated luciferase reporter gene [Cignal Lenti LXR Reporter (luc) kit (Qiagen, Cat # CLS-001L)] was transduced into THP1 cells, and cells were selected for two weeks in puromycin. The lentivirus expresses the firefly luciferase gene under the control of a minimal CMV promoter and tandem repeats of the LXR transcriptional response element. The resulting cell line is referred to as THP1/LXR-Luc cells.
THP1/LXR-Luc cells were seeded onto 96 well plates at 40,000 cells/well in media containing RPMI supplemented with 10% FBS and pencillin/streptomycin and subsequently differentiated with 200 nM Phorbol Myristate Acetate (PMA) for 3 days. After the 3-day differentiation period, three-fold serial dilutions of antibody drug conjugates, unconjugated antibodies, or free payloads in fresh media were added to the cells at final concentration ranging from 100 nM to 0.01 nM. Media alone served as a blank control. Forty-eight hours later, luciferase activity was determined after the addition of One-Glo™ reagent (Promega, Cat # E6130) to each well. Relative light units (RLUs) were measured on a Victor luminometer (PerkinElmer) and EC50 values were determined using a four-parameter logistic equation over a 10-point dose response curve (GraphPad Prism). The signal to noise (S/N) was determined by calculating the ratio of RLU of standard one over RLU of standard eight for each of the unconjugated anti-MSR1 antibodies or free payloads. “LP #” represents a linker-payload for which the corresponding structures are provided elsewhere herein, and “P #” represents a payload for which the corresponding structures are provided elsewhere herein.

[3] = tested on: THP-1 cells; assay: BODIPY-cholesterol efflux in THP-1 macrophages; type: cell-based, human
Description: The ability of anti-MSR1 antibody-LXR conjugates to activate cholesterol efflux in a human macrophage cell line (THP-1; ATCC Catalog # TIB-202), was assessed using a fluorescent cholesterol analog.
Cells were differentiated into macrophages by addition of 100 nM Phorbol-12 myristate 13-acetate (Sigma, Catalog #P 8139) to the media and subjected to further incubation for 96 hours.
Percentage of BODIPY-cholesterol efflux was calculated using the following formula: [fluorescence in acceptor media/(fluorescence in acceptor media+fluorescence in cell lysate)]×100. Table 15 provides activated cholesterol efflux for the tested articles, and FIG. 15 illustrates the data in graph form.

Molecule	Kd [1]	ka [1]	kd [1]	also measured
B1	49.9 pM	200000 M⁻¹ s⁻¹		kd (s^−1) [1]: ≤ 1.00E−05* s^−1
B2	85.5 pM	117000 M⁻¹ s⁻¹	1e-05 s⁻¹	
B3	7720 pM	77200 M⁻¹ s⁻¹	0.000596 s⁻¹	
B4				stimulation of the THP/Luc cells ([2]; 48-hour time point, in words): did not have any impact
B5				S/N (signal to noise, ratio of RLU of standard one over RLU of standard eight) [2]: 9.6; EC50 ([2]; read-out: EC50): 980 pM
B6	45.4 pM	220000 M⁻¹ s⁻¹		kd (s^−1) [1]: ≤ 1.00E−05* s^−1; S/N (signal to noise, ratio of RLU of standard one over RLU of standard eight) [2]: No activation; EC50 [2]: No activation; Maximum efflux (%) ([3]; 24-hour treatment, BODIPY-cholesterol efflux): 18.7%; cholesterol efflux ([3]; after 24 hours, in words): did not demonstrated any measurable cholesterol efflux
B7	4680 pM	119000 M⁻¹ s⁻¹	0.000555 s⁻¹	
B8	8670 pM	105000 M⁻¹ s⁻¹	0.000906 s⁻¹	
